This series deals with the molecule itself. Nature of the series: crystal structure.

B1: N-(His)10-tagged CalG3 (native) (enzyme, Micromonospora echinospora, UniProt Q8KND7 1-376, looked up)
chain: MLFVSSPGIGHLFPLIQLAWGFRTAGHDVLIAVAEHADRAAAAGLEVVDVAPDYSAVKVFEQVAKDNPRFAETVATRPAIDLEEWGVQIAAVNRPLVDGTMALVDDYRPDLVVYEQGATVGLLAADRAGVPAVQRNQSAWRTRGMHRSIASFLTDLMDKHQVSLPEPVATIESFPPSLLLEAEPEGWFMRWVPYGGGAVLGDRLPPVPARPEVAITMGTIELQAFGIGAVEPIIAAAGEVDADFVLALGDLDISPLGTLPRNVRAVGWTPLHTLLRTCTAVVHHGGGGTVMTAIDAGIPQLLAPDPRDQFQHTAREAVSRRGIGLVSTSDKVDADLLRRLIGDESLRTAAREVREEMVALPTPAETVRRIVERISG
For B1, the stoichiometry N (in general, the number of molecules, sites or subunits per partner or assembly) is 2.

The values are drawn from PMC2965851 (Chemistry & biology, 2008).
